Measured values taken from article PMC5440810.

Key:
[1] = target: P18-I10/H2-D^d, BirA-tagged and biotinylated (mouse | not stated); assay: SPR
[2] = target: P18-I10/H2-D^d (peptide-loaded MHC class I with β2m) (mouse | not stated); assay: AUC

B4.2.3 TCR, soluble disulfide-linked αβ heterodimer (extracellular portions)
Kd [1]: 540 nM | Kd [2]: 230 nM | stoichiometry N [2]: 1
